Source: PMC5794259, “Novel ATP-cone-driven allosteric regulation of ribonucleotide reductase via the radical-generating subunit” (eLife, 2018)
Blank lines part the entries; values can stand above or below the binder they belong to.

Key:
[1] = target: the molecule itself; experiment: SEC; with 100 µM dATP; Superdex 200 10/300 GL at room temperature; 50 mM Tris-HCl pH 7.6, 150 mM KCl, 10 mM MgCl2; NrdB 10 µM, NrdA at rising concentrations
[2] = target: T1, Leeuwenhoekiella blandensis NrdBi (wild type NrdB, radical-generating subunit of class I ribonucleotide … (Leeuwenhoekiella blandensis sp. nov. …, UniProt A3XHF9 1-427)); experiment: SEC; with 3 mM ATP in sample and buffer; Superdex 200 PC 3.2/30 at 7°C; 50 mM Tris-HCl pH 8, 50 mM KCl, 10% glycerol, 10 mM magnesium acetate, 2 mM DTT; proteins 20 µM each; eluted fractions analysed by SDS PAGE; details: both partners purified
T1 construct: NrdBi, radical-generating subunit of the class I RNR of Leeuwenhoekiella blandensis sp. nov. strain MED217; GenBank EAQ51288; amplified from genomic DNA with primers from the start codon to the stop codon; ATP-cone 1-103, linker 104-106, core 107-398, C-terminus 399-427; pET-28a(+) construct with N-terminal hexahistidine tag and thrombin site; Oligomeric state depends on nucleotide: dimer with …
T1 sequence (looked up): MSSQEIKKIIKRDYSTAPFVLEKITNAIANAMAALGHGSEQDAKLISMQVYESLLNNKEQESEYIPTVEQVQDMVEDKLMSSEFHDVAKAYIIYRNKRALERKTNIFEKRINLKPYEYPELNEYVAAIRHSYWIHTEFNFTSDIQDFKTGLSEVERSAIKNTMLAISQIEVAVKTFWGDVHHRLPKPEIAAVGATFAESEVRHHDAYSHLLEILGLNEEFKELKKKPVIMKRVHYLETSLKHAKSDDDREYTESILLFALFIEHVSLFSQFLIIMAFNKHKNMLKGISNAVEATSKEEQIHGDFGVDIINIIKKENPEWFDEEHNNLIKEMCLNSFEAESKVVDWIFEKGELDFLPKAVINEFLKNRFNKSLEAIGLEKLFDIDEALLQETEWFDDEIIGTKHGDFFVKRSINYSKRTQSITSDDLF

[3] = target: the molecule itself; experiment: crystal structure; NrdB 9.6 mg/ml with 20 mM MgCl2, 2 mM TCEP, 5 mM dATP; 0.2 M CaCl2, 0.1 M Tris pH 8.0, 20% PEG 600, 3% 6-aminohexanoic acid, 20°C; space group P1, one tetramer in the unit cell

stoichiometry N [2]: 1
B1: Leeuwenhoekiella blandensis NrdAi (NrdA, catalytic subunit of class I ribonucleotide reductase) (enzyme, UniProt A3XHF8 1-600, looked up)
chain: MRENTTKLENSTETNVQHTKDNDLLKARRDALQDATEKNTDEPSFDWLTEHSRSFLAAGYLSEGVSAEERIREIADRAEEILRMPGFSDKFYKYMGEGYFSLASPVWSNFGKKRGLPISCFGSHIDDDMGNILYTQSEVGMMSKLGGGTSGYFGKIRHRGAAVKNNGYASGAVHIMQLFDKMVDVVSQGSVRRGRFSPYLPISHPDIKEFLEIGTEGNSIQQLTHGVTVDSTWMQEMIDGDTDKREVWAKVLQRRGEMGYPYIFYTDNANNGKPDVYKDKGHDIYASNLCTEIMLPSSDEWSFVCVLSSINVLHYDKWKNTDAVETMVCFLDAVLTEFIDKLEEYRDSDNRDHRQTFMFMERAYNFAKSNRALGLGVLGWHSLLQSKRHAFDSQEAYDLNSEIFREIKQRSYKASEELAEKFGEPETLKGYGRRNATLNAIAPTTSSAFILGQVSQGIEPIWSNVYVKDIAKIKTTIKNPFLEELFEEKGMNTPEVWRSVRDNDGSVQHLEFLTEQEKDVFKTYAEIDQMAIIYQAANRQNHIDQGQSINLLVHPDMPIKEINKIHITAWKLGLKSLYYQHSMNAAQKFKQKKECVSCEA
notes: NrdAi, catalytic subunit of the class I RNR of Leeuwenhoekiella blandensis sp. nov. strain MED217; amplified from genomic DNA with primers from the start codon to the stop codon; pET-nrdA with N-terminal hexahistidine tag and thrombin site; no cleavage is told for NrdA (theoretical monomer mass printed as 70.6 kDa); source: E. coli BL21(DE3), pET-28a(+), purified (HisTrap Ni Sepharose, gel …)
stoichiometry N [1]: 2

B2: Leeuwenhoekiella blandensis NrdB, thrombin-cleaved (used for crystallization) (enzyme)
chain: GSHMSSQEIKKIIKRDYSTAPFVLEKITNAIANAMAALGHGSEQDAKLISMQVYESLLNNKEQESEYIPTVEQVQDMVEDKLMSSEFHDVAKAYIIYRNKRALERKTNIFEKRINLKPYEYPELNEYVAAIRHSYWIHTEFNFTSDIQDFKTGLSEVERSAIKNTMLAISQIEVAVKTFWGDVHHRLPKPEIAAVGATFAESEVRHHDAYSHLLEILGLNEEFKELKKKPVIMKRVHYLETSLKHAKSDDDREYTESILLFALFIEHVSLFSQFLIIMAFNKHKNMLKGISNAVEATSKEEQIHGDFGVDIINIIKKENPEWFDEEHNNLIKEMCLNSFEAESKVVDWIFEKGELDFLPKAVINEFLKNRFNKSLEAIGLEKLFDIDEALLQETEWFDDEIIGTKHGDFFVKRSINYSKRTQSITSDDLF
notes: three additional residues (GlySerHis) left at the N-terminus from the thrombin cleavage site; NrdBi of Leeuwenhoekiella blandensis sp. nov. strain MED217; GenBank EAQ51288; Crystallized with 5 mM dATP, 20 mM MgCl2; two dATP per ATP-cone; metal site occupied by Ca2+ from the crystallization medium; also called thrombin-cleaved NrdB; source: E. coli BL21(DE3), purified (HisTrap, gel filtration), …
stoichiometry N [3]: 4
